Measured values: PMC13395437, “A single DNA methylation site regulates cell fate during Clostridioides difficile sporulation”
Positions count from the first letter of the chain named.

Tests used:
[1] = target: T1, Spo0A DNA-binding domain (Spo0A145-247-His6) (UniProt P52938); experiment: EMSA; settings: FP: 1 nM dsDNA, 50 mM Tris-HCl pH 8, 100 mM KCl, 2.5 mM MgCl2, 0.2 mM DTT, 10% glycerol, 2 µg salmon sperm DNA, 10 min, RT; EMSA: 20 fmol DNA, 10 mM Tris-HCl …
T1 sequence: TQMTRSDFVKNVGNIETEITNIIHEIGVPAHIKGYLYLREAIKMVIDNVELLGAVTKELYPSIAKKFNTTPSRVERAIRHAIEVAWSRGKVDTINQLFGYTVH

[2] = target: T2, Spo0A DNA-binding domain (Spo0A145-247-His6) (UniProt P52938 145-247); experiment: fluorescence polarization; FP: 1 nM dsDNA, 50 mM Tris-HCl pH 8, 100 mM KCl, 2.5 mM MgCl2, 0.2 mM DTT, 10% glycerol, 2 µg salmon sperm DNA, 10 min, RT; EMSA: 20 fmol DNA, 10 mM Tris-HCl pH 7.6, 1 mM EDTA, 50 mM NaCl, 1 mM DTT, 5% glycerol, 30 min, 37 C; settings: protein: recombinant; tags: C-terminal His6; label: 6FAM on strand 1 (5' primer); blunt
T2 sequence: T1 sequence with I42M

CCTCCTCTTTTGTTTATATTAAGAATTGTAACAAAGAGGAGTAATTTTTTTTGTCATAATCGGTTTTAAAAATCAAAAAATATTAATACATTTTTTTTGACTTTTGACATATTAAGCCTTCCAAATTATCGTATTCACTTACGGTTATTTCTTCTATTTCTAATTTTTCCATTATTATATTCAATATTTTTACACCAGCAGTTATAATATCCGCACGTTTTTCTTGTAGCCCTTTTAAGTTCTTTTTATCAC (double strand) [WT PspoIIE EMSA fragment]
binding [1]: binds

CCTCCTCTTTTGTTTATATTAAGAATTGTAACAAAGAGGAGTAATTTTATTTGTCATAATCGGTTTTAAAAATCAAAAAATATTAATACATTTTTTTTGACTTTTGACATATTAAGCCTTCCAAATTATCGTATTCACTTACGGTTATTTCTTCTATTTCTAATTTTTCCATTATTATATTCAATATTTTTACACCAGCAGTTATAATATCCGCACGTTTTTCTTGTAGCCCTTTTAAGTTCTTTTTATCAC (double strand) [Me3* PspoIIE EMSA fragment]
binding [1]: binds

B1: WT PspoIIE FP probe (dsDNA)
DNA 1: AAAACCGATTATGACAAAAAAAATTACTCC
DNA 2: GGAGTAATTTTTTTTGTCATAATCGGTTTT
binding result [2]: binds

B2: Me3* PspoIIE FP probe (dsDNA)
DNA 1: B1 DNA 1 with A19T
DNA 2: B1 DNA 2 with T12A
binding result [2]: binds
